# Data: the supplement of paper PMC10126150
# ± gives the standard deviation of the averaged measurements.
# Tested on: ATP
# Experiment: switch fluorescence ratio, 500 uM ATP over buffer (Cy3 cluster intensity, sum of 5 cycles each) (fold (ratio)); higher = stronger signal-on switching upon ATP binding; sequences stand for … in TCGTCGGCAGCGTCAGATGTGTATAAGAGACAGTTTTTTTTTTTTTTTTTTTTTTTTT…TC
# Conditions: aptamer strand: ATP DNA aptamer (quencher-CACCTGGGGGAGTATTGCGGAGGAAGG + anchor), 100 nM annealed; ATP concentration: 500 uM
# In short: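 Clusters carrying Cy3-labelled switching strands on a modified Illumina MiSeq flow-cell were annealed to 100 nM quencher-labelled ATP aptamer and imaged in selection buffer. They were imaged again after 15 min with 500 uM ATP at 22 °C, over five buffer/ATP cycles with NaOH stripping and re-annealing in between. For each cluster, the fluorescence ratio is the summed Cy3 intensity of the target cycles divided by that of the buffer cycles, averaged per switch-domain sequence. Clusters outside 100-1000 RFU were left out.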
# 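Further: ATP exposure 15 min at 22 °C before imaging.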
row,Sequence,switch fluorescence ratio
1,TTACGGTAAT,1.143 ± 0.0043
2,TTACGTAGGC,1.09 ± 0.012
3,TTACGTTTGG,1.02 ± 0.025
4,TTACTAATTT,1.05 ± 0.036
5,TTACTACTTT,1.04 ± 0.0099
6,TTACTAGGCA,1.01 ± 0.012
7,TTACTCCGGG,1.3 ± 0.23
8,TTACTCTCTG,1.03 ± 0.025
9,TTACTGGGGG,0.999 ± 0.027
10,TTACTGTTG,1.05 ± 0.1
11,TTACTTCTCA,1 ± 0.011
12,TTACTTGGCT,1.01 ± 0.032
13,TTACTTTTTC,1.01 ± 0.011
14,TTAGAAAGAA,0.976 ± 0.013
15,TTAGAAGTTT,1.01 ± 0.015
16,TTAGAATTCC,1.1 ± 0.091
17,TTAGACCGGA,1.02 ± 0.056
18,TTAGACCGTG,0.956 ± 0.079
19,TTAGACGGGT,0.982 ± 0.0043
20,TTAGACGGTT,1 ± 0.017
21,TTAGAGAAGT,0.987 ± 0.019
22,TTAGAGACGC,1.06 ± 0.021
23,TTAGAGCTAG,1.07 ± 0.09
24,TTAGAGGACT,1.01 ± 0.025
25,TTAGAGGGGG,1.01 ± 0.032

row,Sequence,switch fluorescence ratio
1,TTAGAGGTTG,1.13 ± 0.21
2,TTAGATGGAG,0.984 ± 0.024
3,TTAGATGGTT,0.984 ± 0.021
4,TTAGATGTCC,0.9822 ± 0.0075
5,TTAGCAGCGT,1 ± 0.019
6,TTAGCAGCTG,1 ± 0.04
7,TTAGCAGGGA,1 ± 0.019
8,TTAGCATGGG,1.04 ± 0.037
9,TTAGCCTAGT,0.965 ± 0.037
10,TTAGCGAGGA,1.03 ± 0.046
11,TTAGCGGTGG,0.926 ± 0.057
12,TTAGCGTGCT,0.994 ± 0.0073
13,TTAGCTAAAA,1.009 ± 0.01
14,TTAGCTAGTT,0.987 ± 0.042
15,TTAGCTGTAG,1.09 ± 0.11
16,TTAGGAACTC,0.982 ± 0.014
17,TTAGGAAGGG,0.956 ± 0.035
18,TTAGGACCCT,1.01 ± 0.041
19,TTAGGACTGG,0.992 ± 0.0054
20,TTAGGAGGTT,0.965 ± 0.028
21,TTAGGATTAA,1.02 ± 0.063
22,TTAGGATTGG,0.986 ± 0.025
23,TTAGGCACAA,1.03 ± 0.038
24,TTAGGCAGAT,1.24 ± 0.36
25,TTAGGCCCCG,1.01 ± 0.04

row,Sequence,switch fluorescence ratio
1,TTAGGCCGGA,1.04 ± 0.075
2,TTAGGCTGAT,0.981 ± 0.02
3,TTAGGGAGTG,1 ± 0.027
4,TTAGGGCTTT,1.01 ± 0.035
5,TTAGGGGATC,1 ± 0.025
6,TTAGGGGCGT,0.989 ± 0.013
7,TTAGGGGGTG,1.01 ± 0.025
8,TTAGGGGTCG,1 ± 0.041
9,TTAGGGTCAT,0.979 ± 0.012
10,TTAGGGTCGT,1.01 ± 0.018
11,TTAGGGTTTT,1.04 ± 0.067
12,TTAGGTAATA,1 ± 0.022
13,TTAGGTACGA,1.05 ± 0.011
14,TTAGGTAGTT,0.971 ± 0.051
15,TTAGGTATTA,0.9912 ± 0.0036
16,TTAGGTGGCG,1.04 ± 0.018
17,TTAGGTGGG,0.989 ± 0.024
18,TTAGGTTAAA,1.06 ± 0.12
19,TTAGGTTAGG,0.9765 ± 0.0064
20,TTAGGTTGGT,1 ± 0.065
21,TTAGTAAAGG,1.01 ± 0.041
22,TTAGTAGTTT,0.976 ± 0.015
23,TTAGTATCGG,0.999 ± 0.052
24,TTAGTATCTC,1.03 ± 0.047
25,TTAGTATTCT,0.992 ± 0.031

row,Sequence,switch fluorescence ratio
1,TTAGTCATGC,1.09 ± 0.12
2,TTAGTCCTTT,1.03 ± 0.058
3,TTAGTCGTCG,1 ± 0.06
4,TTAGTCTGGG,1 ± 0.039
5,TTAGTGAGCG,1.03 ± 0.012
6,TTAGTGCCGG,0.994 ± 0.016
7,TTAGTGGCTA,1.019 ± 0.0087
8,TTAGTGGGGT,1.01 ± 0.028
9,TTAGTTACGA,1.04 ± 0.014
10,TTAGTTTCTA,0.99394 ± 0.00081
11,TTAGTTTGAA,0.968 ± 0.012
12,TTATAAAGAT,0.992 ± 0.035
13,TTATAAATTT,1.29 ± 0.45
14,TTATAAGTGT,0.963 ± 0.035
15,TTATAATACT,1.04 ± 0.019
16,TTATAATATT,1.03 ± 0.025
17,TTATAATTTG,1.02 ± 0.032
18,TTATACATT,1.02 ± 0.075
19,TTATAGATAG,0.999 ± 0.018
20,TTATAGATTG,1 ± 0.019
21,TTATAGGCGG,0.981 ± 0.016
22,TTATAGGGTT,0.991 ± 0.041
23,TTATAGTTGG,0.98 ± 0.023
24,TTATATAGGT,0.9738 ± 0.0054
25,TTATATATTG,0.969 ± 0.029
